According to publication PMC3266742 (Molecular Cell, 2010):

Molecular target: ubiquitin (mono-Ub), untagged, purified (UniProt P0CG47 1-76)
Assay: NMR titration

B1: 6xHis-tagged Doa1 β-Prp (domain or fragment, S. cerevisiae)
chain: GYQLSATLKGHDQDVRDVVAVDDSKVASVSRDGTVRLWSKDDQWLGTVVYTGQGFLNSVCYDSEKELLLFGGKDTMINGVPLFATSGEDPLYTLIGHQGNVCSLSFQDGVVISGSWDKTAKVWKEGSLVYNLQAHNASVWDAKVVSFSENKFLTASADKTIKLWQNDKVIKTFSGIHNDVVRHLAVVDDGHFISCSNDGLIKLVDMHTGDVLRTYEGHESFVYCIKLLPNGDIVSCGEDRTVRIWSKENGSLKQVITLPAISIWSVDCMSNGDIIVGSSDNLVRIFSQEKSRWASEDEI
Kd: 224 µM
